Patent publication US20230357367A1 (GENERATE BIOMEDICINES, published 2023)
Where two headings read alike, the source gives them in different places.

Experiments:
Experiment in all cases: cell-based or functional assay
[1] = target: SARS-CoV-2 D614G Spike on pseudovirus (SARS-CoV-2, UniProt P0DTC2 14-1273)
[2] = target: T1, SARS-CoV-2 Delta Spike on virus particles (SARS-CoV-2)
[3] = target: T2, SARS-CoV-2 Omicron BA.2 Spike on pseudovirus (SARS-CoV-2)
[4] = target: T3, SARS-CoV-2 Omicron BA.4/5 Spike on pseudovirus (SARS-CoV-2)
[5] = target: T1, SARS-CoV-2 Delta Spike on virus …; remark: listed apart in the source
[6] = target: T4, SARS-CoV-2 Omicron BA.1 Spike on virus particles (SARS-CoV-2)
[7] = target: T2, SARS-CoV-2 Omicron BA.2 Spike on …; remark: listed apart in the source
[8] = target: T5, SARS-CoV-2 Omicron BA.2.12.1 Spike on pseudovirus (SARS-CoV-2)
[9] = target: T3, SARS-CoV-2 Omicron BA.4/5 Spike on …; remark: listed apart in the source
[10] = target: T1, SARS-CoV-2 Delta Spike on virus …; remark: listed apart in the source
[11] = target: T4, SARS-CoV-2 Omicron BA.1 Spike on virus …; remark: listed apart in the source
[12] = target: T2, SARS-CoV-2 Omicron BA.2 Spike on …; remark: listed apart in the source
[13] = target: T5, SARS-CoV-2 Omicron BA.2.12.1 Spike on …; remark: listed apart in the source
[14] = target: T3, SARS-CoV-2 Omicron BA.4/5 Spike on …; remark: listed apart in the source
[15] = target: T1, SARS-CoV-2 Delta Spike on virus …; remark: listed apart in the source
[16] = target: T4, SARS-CoV-2 Omicron BA.1 Spike on virus …; remark: listed apart in the source
[17] = target: T3, SARS-CoV-2 Omicron BA.4/5 Spike on …; remark: listed apart in the source
[18] = target: SARS-CoV-2 Omicron BA.4/5+K444T Spike on pseudovirus (SARS-CoV-2)
[19] = target: T5, SARS-CoV-2 Omicron BA.2.12.1 Spike on …; remark: listed apart in the source

Binder | EC50, pseudovirus neutralization on TMPRSS2-Vero E6 cells [1] [µg/mL] | IC50, pseudovirus neutralization [2] [µg/mL] | IC50, pseudovirus neutralization [3] [µg/mL] | IC50, pseudovirus neutralization [4] [µg/mL] | IC50, pseudovirus neutralization [5] [µg/mL] | IC50, pseudovirus neutralization [6] [µg/mL] | IC50, pseudovirus neutralization [7] [µg/mL] | IC50, pseudovirus neutralization [8] [µg/mL] | IC50, pseudovirus neutralization [9] [µg/mL] | % neutralization at 4.5 µg/ml, pseudovirus [10] [%] | % neutralization at 4.5 µg/ml, pseudovirus [11] [%] | % neutralization at 4.5 µg/ml, pseudovirus [12] [%] | % neutralization at 4.5 µg/ml, pseudovirus [13] [%] | % neutralization at 4.5 µg/ml, pseudovirus [14] [%] | IC50, live virus neutralization [15] [µg/mL] | IC50, live virus neutralization [16] [µg/mL] | Neutralization - IC50, pseudovirus [17] [µg/mL] | Neutralization - IC50, pseudovirus [18] [µg/mL] | IC50, pseudovirus neutralization [19] [µg/mL]
AB-1 (antibody, V domains shown) VH: EVQLVESGAEVKKPGESLKISCKGSGYTFTRYWIGWVRQMPGKGLEWMGIIYPGDSDVRYSPSFQGHVTISADKSISTAYLQWNSLKASDTAMYYCARLPQYCSKGVCYRWFDPWGQGTLVTVSS VL: EIVLTQSPSSVSASVGDRVTITCRASQGISSWLAWYQQKPGKAPKLLIYAASSLQSGVPSRFSGSGSGTDFTLTISSLQPEDFATYYCQQGHSFPYTFGQGTNLEIK | 0.013 | 0.034 | 0.031 | 0.075 | 0.0139 | 0.0088 | 0.0219 | 0.0133 | 0.0278 | 99.5 | 96.5 | 89.9 | 89.2 | 90.4 | 0.236 | 0.119 | 0.0101 | 0.0094 | –
Reference Antibody (antibody, V domains shown) VH: EVQLVESGAEVKKPGESLKISCKGSGYTFTRYWIGWVRQMPGKGLEWMGIIYPGDSDTRYSPSFQGHVTISADKSISTAYLQWNSLKASDTAMYYCARLPQYCSNGVCQRWFDPWGQGTLVTVSS VL: EIVLTQSPSSVSASVGDRVTITCRASQGISSWLAWYQQKPGKAPKLLIYAASSLQSGVPSRFSGSGSGTDFTLTISSLQPEDFATYYCQQGNSFPYTFGQGTNLEIK | – | 0.256 | 1.25 | 0.634 | 0.0681 | 0.0261 | 0.0941 | 0.0307 | 0.0314 | 93.9 | 91.9 | 74.5 | – | 74.4 | 7.45 | 0.528 | – | – | 0.337
